{"source": "paper PMC4197964", "about": "(Genes & Development, 2014)", "binders": {"B1": {"name": "GST-Psh1, full-length [FL (1-406)] (enzyme, budding yeast, UniProt Q12161 1-406, looked up)", "chain": "MGDELHNRLLHQNDGTKDAILYKIIESLVCSICHDYMFVPMMTPCGHNYCYGCLNTWFASNTQKELACPQCRSDITTIPALNTTLQQYLSFILEKLRDQNDESFKKLLTTKTKEENDYKNDKEKDTLFDKVFKNSALAVADDSDDGITRCSNCHWELDPDEVEDGNVCPHCNARIRNYAGGRDEFDEEEYSEGELDEIRESMRRRRENRFASTNPFANRDDVSSEDDDSSEEEPMREHIPLGRWARSHNRSIAVDAVDDEDDEEEDEEEEEEMDSDLKDFIEDDEDDEDEDGSRRNLVLSALKNRHVIITDDEEEEQRRHATEEEDRDSDFYEHNDDGFVSGDSLDEDQKEVTRIQSSSDSEDRSLSYSGSSDVKDNNDDNTEELDDPQPKRQKRFRVVLGDSDDE"}}, "biological_target": "MBP-Spt16 (budding yeast, UniProt P32558 1-1035)", "sequence (P32558 whole entry)": "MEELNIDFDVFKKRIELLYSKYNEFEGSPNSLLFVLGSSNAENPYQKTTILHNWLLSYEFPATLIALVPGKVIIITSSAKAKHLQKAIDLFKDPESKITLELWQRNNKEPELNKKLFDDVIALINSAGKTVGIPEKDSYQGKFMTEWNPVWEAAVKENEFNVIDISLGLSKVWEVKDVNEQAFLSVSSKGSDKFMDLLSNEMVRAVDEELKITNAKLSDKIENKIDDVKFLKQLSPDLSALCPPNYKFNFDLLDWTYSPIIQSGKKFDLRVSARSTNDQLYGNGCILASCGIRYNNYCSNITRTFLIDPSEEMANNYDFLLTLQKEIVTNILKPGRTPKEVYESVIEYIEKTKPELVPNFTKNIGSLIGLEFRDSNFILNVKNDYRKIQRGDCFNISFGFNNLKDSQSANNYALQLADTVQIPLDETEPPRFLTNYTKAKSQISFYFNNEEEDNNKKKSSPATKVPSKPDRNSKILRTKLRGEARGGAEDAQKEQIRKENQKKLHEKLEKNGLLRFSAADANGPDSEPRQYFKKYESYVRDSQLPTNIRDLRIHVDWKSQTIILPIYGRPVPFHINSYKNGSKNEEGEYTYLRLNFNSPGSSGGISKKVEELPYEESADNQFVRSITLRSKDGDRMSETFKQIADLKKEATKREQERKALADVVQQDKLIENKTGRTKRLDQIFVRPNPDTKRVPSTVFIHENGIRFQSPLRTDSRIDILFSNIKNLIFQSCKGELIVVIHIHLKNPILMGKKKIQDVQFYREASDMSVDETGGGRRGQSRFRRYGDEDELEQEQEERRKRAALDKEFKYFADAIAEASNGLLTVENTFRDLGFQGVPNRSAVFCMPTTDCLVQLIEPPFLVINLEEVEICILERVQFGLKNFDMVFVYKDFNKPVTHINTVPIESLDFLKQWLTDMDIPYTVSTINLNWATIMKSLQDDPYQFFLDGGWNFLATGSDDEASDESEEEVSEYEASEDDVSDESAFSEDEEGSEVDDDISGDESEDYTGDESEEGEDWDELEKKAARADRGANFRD", "assay": "pull-down"}
{"binder": "B1", "values": [{"measurement": "binding result", "value": "binds"}]}
